In article doi:10.1101/2025.10.12.681846v1 (bioRxiv, 2025):
Read-outs that look alike come from different tables or passages of the source. Each block holds one substance with its values, some of them ahead of it.

What was measured:
[1] = system: STZ-induced type 1 diabetic mice; test: Type 1 diabetes treatment study in mice; format: in vivo, C57BL/6 mice
[2] = Pharmacokinetic studies in diabetic minipigs; format: in vivo, Bama minipigs; settings: s.c., two-compartmental model, n = 3
[3] = system: type 1 diabetic minipigs; test: In vivo blood glucose-responsive insulin release in minipigs; settings: for BG rise within 30 minutes: one day after insulin-129, i.v. glucose infusion
[4] = system: STZ-induced type 1 diabetic mice; test: Long-term therapy as weekly formulation in diabetic mice; format: in vivo, C57BL/6 mice; settings: for BG drop in the first few hours after injection: n = 5
[5] = system: type 1 diabetic mice; test: Intraperitoneal glucose tolerance test in diabetic mice; format: in vivo; settings: i.p. glucose 1.5 g/kg, n = 5
[6] = target: human IgG1-Fc (Homo sapiens, UniProt P01857); test: SPR binding to human IgG1-Fc; settings: read-out: KD for human IgG1-Fc
[7] = system: type 1 diabetic mice; test: In vivo glucose-responsive insulin release in mice; settings: for initial PIL: before glucose 3 g/kg
[8] = system: STZ-induced type 1 diabetic mice; test: Isoglycaemic clamp at hyperglycaemia in diabetic mice; format: in vivo; settings: BG clamped at 400 mg/dL; one day after 12 mg/kg; n = 5
[9] = target: T1, mouse nostrin (Mus musculus, UniProt Q6WKZ7); test: SPR binding to mouse nostrin; settings: for Kd: read-out: KD for nostrin, SPR, 25 °C, DPBS pH 7.4
T1 sequence (Q6WKZ7 1-506): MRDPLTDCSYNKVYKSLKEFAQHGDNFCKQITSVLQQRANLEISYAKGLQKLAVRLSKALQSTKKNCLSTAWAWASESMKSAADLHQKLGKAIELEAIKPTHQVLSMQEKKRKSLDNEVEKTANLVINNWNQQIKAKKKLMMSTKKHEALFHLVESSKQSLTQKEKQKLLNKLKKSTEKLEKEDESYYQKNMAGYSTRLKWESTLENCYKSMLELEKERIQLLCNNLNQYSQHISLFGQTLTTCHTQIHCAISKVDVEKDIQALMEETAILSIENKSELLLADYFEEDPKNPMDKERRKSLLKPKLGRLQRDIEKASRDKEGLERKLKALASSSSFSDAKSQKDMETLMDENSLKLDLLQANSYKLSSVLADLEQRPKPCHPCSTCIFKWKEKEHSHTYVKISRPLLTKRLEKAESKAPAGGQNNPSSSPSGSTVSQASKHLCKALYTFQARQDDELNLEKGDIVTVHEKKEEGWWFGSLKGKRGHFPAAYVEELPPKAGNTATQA

[10] = system: type 1 diabetic minipigs; test: Type 1 diabetes treatment study in minipigs; format: in vivo, Bama minipigs; settings: for time BG remained within the target range (70 to 200 mg/dL): n = 3, statistical time 0-168 h for insulin-129 and 0-24 h for Lantus
[11] = system: healthy mice; test: Isoglycaemic; format: in vivo; settings: summary statement
[12] = Pharmacokinetics after subcutaneous injection in diabetic mice; format: in vivo; settings: s.c. 12 mg/kg
[13] = system: type 1 diabetic minipigs; test: Fully automated insulin delivery system in diabetic minipigs; format: in vivo; settings: 48 h
[14] = system: diabetic mice; test: Toxicity evaluation and histomorphology in mice; format: in vivo; settings: one week post-injection, 10 mg/kg
[15] = target: T2, human nostrin (Homo sapiens, UniProt Q8IVI9); test: SPR binding to human nostrin; settings: read-out: KD for human nostrin
T2 sequence (Q8IVI9 1-506): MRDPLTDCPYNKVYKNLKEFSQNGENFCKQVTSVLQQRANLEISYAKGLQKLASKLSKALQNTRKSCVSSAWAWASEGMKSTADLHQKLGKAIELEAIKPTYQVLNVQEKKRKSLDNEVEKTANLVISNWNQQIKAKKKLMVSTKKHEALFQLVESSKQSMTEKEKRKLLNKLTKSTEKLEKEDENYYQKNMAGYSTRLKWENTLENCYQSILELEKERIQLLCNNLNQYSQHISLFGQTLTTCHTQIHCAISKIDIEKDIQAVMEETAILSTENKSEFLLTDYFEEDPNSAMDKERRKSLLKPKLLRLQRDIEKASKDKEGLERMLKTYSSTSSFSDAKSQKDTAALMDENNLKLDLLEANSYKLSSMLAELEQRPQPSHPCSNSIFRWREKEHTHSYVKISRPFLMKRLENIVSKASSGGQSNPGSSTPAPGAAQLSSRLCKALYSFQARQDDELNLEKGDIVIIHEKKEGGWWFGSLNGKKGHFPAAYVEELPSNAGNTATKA

[16] = Pharmacokinetics after intravenous injection in healthy mice; format: in vivo, C57BL/6J mice; settings: i.v. 1 nmol/kg, two-compartment model, n = 5
[17] = target: mouse IgG1-Fc (Mus musculus, UniProt P01868); test: SPR binding to mouse IgG1-Fc; settings: for Kd: read-out: KD for IgG1-Fc, SPR, 25 °C, DPBS pH 7.4
mouse IgG1-Fc, sequence (P01868 98-324 limits assumed): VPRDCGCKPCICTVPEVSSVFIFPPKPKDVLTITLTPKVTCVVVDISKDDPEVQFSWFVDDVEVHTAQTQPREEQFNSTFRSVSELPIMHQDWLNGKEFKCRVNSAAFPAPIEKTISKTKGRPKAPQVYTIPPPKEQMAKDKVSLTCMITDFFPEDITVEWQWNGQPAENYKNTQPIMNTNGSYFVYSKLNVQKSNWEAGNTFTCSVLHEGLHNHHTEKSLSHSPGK

[18] = SPECT/CT imaging of 131I-labelled insulin-129 in diabetic mice; format: in vivo; settings: s.c. 10 mg/kg
[19] = Biodistribution and intra-tissue distribution in diabetic mice; format: in vivo; settings: three days after s.c. 10 mg/kg; CD31 staining
[20] = five days after 12 mg/kg, n = 5
[21] = one day after 12 mg/kg, i.p. glucose 3 g/kg
[22] = one day after 12 mg/kg, i.p. glucose 3 g/kg, n = 5

- Kd [6]: 36.7 nM
- increase in KD for nostrin ([9]; glucose from 0 to 20 mM): 19.5 fold
- increase in KD for nostrin ([9]; glucose from 5 to 20 mM): 8.4 fold
- Kd ([9]; 5 mM glucose): 201 nM
- Kd ([9]; 10 mM glucose): 605 nM
- Kd ([9]; 20 mM glucose): 1680 nM
- Kd ([9]; absence of glucose): 86 nM
- Kd [15]: 241 nM
- increase in KD for IgG1-Fc ([17]; glucose from 5 to 20 mM): 5.0 fold
- Kd ([17]; 5 mM glucose): 137 nM
- Kd ([17]; 10 mM glucose): 276 nM
- Kd ([17]; 20 mM glucose): 691 nM
- Kd ([17]; absence of glucose): 42.4 nM
Substance: insulin-129: recombinant human insulin with 4-carboxy-3-fluorophenylboronic acid (FPBA) covalently conjugated at A1 and B29 sites
- lowest average BG level ([1]; one hour after s.c. 12 mg/kg, mean ± s.d., n = 5, SD): 76.0 ± 6.4 mg/dL
- treatment duration among the three insulin analogues ([1]; s.c. 4 mg/kg, insulin-1, insulin-29 and insulin-129, n = 5): longest duration
- hypoglycaemia (BG < 70 mg/dL) ([1]; s.c. 4, 8 and 12 mg/kg, any mouse): No hypoglycaemia
- extension of normoglycaemia compared with insulin glargine ([1]; single injection): approximately 47.5 folds
- time kept normoglycaemic ([1]; single s.c. 4 mg/kg, n = 5): 46 h
- time kept normoglycaemic ([1]; single s.c. 8 mg/kg, n = 5): 142 h
- time kept normoglycaemic ([1]; single s.c. 12 mg/kg, n = 5): 190 h
- half-life [2]: 127.5 ± 36.6 h
- baseline serum insulin-129 level ([3]; Pig I): 369.1 μU/mL
- peak serum insulin-129 level ([3]; Pig I, glucose infusion): 907.3 μU/mL
- baseline serum insulin-129 level ([3]; Pig II): 375.5 μU/mL
- peak serum insulin-129 level ([3]; Pig II, glucose infusion): 1108.0 μU/mL
- baseline serum insulin-129 level ([3]; Pig III): 430.6 μU/mL
- peak serum insulin-129 level ([3]; Pig III, glucose infusion): 1520.5 μU/mL
- BG rise within 30 minutes ([3]; Pig Ⅰ): 399.6 mg/dL
- BG rise within 30 minutes ([3]; Pig Ⅱ): 316.8 mg/dL
- BG rise within 30 minutes ([3]; Pig Ⅲ): 599.4 mg/dL
- BG by 45 minutes ([3]; Pigs Ⅰ, Ⅱ and Ⅲ): below 200 mg/dL
- rise of serum insulin-129 level from baseline ([3]; glucose infusion, Pigs I, II and III): approximately threefold
- normoglycaemia maintained by each injection ([4]; 10 mg/kg then three weekly 4.8 mg/kg s.c.): one week
- time remaining effective before BG returned to original level ([4]; after the fourth injection): more than 800 hours
- BG drop in the first few hours after injection ([4]; first injection (10 mg/kg s.c.)): 89.6 ± 13.1 mg/dL
- BG drop in the first few hours after injection ([4]; fourth weekly injection (4.8 mg/kg s.c.)): 78.8 ± 8.8 mg/dL
- stabilised BG ([4]; one day after the fourth injection): approximately 150 mg/dL
- BG drop in the first few hours after injection ([4]; second weekly injection (4.8 mg/kg s.c.)): 79.6 ± 12.4 mg/dL
- BG drop in the first few hours after injection ([4]; third weekly injection (4.8 mg/kg s.c.)): 77.8 ± 5.4 mg/dL
- BG before glucose administration ([5]; day 1 after 12 mg/kg): 96.8 ± 19.7 mg/dL
- peaking BG within 15 minutes ([5]; day 1 after 12 mg/kg): 194.8 ± 31.9 mg/dL
- BG before glucose administration ([5]; day 5 after 12 mg/kg): 163.1 ± 27.7 mg/dL
- peaking BG within 15 minutes ([5]; day 5 after 12 mg/kg): 310.3 ± 44.2 mg/dL
- synchronised increase in insulin level upon glucose injection ([7]; STZ-induced type 1 diabetic mice, summary statement): more than 3 fold
- initial PIL [7, 20]: 210.2 ± 31.7 μU/mL
- peak PIL ([7]; five days after 12 mg/kg, i.p. glucose 3 g/kg, n = 5): 573.7 ± 40.0 μU/mL
- PIL after decline within 120 minutes [7, 20]: 204.3 ± 52.0 μU/mL
- initial PIL ([7]; one day after 12 mg/kg, n = 5): 258.6 ± 37.6 μU/mL
- BG by 45 minutes [7, 21]: below 200 mg/dL
- increase in PIL [7, 21]: approximately 4.2 fold
- BG spike at 30 minutes [7, 22]: 310.7 ± 29.2 mg/dL
- peak PIL [7, 22]: 1080.4 ± 49.6 μU/mL
- PIL after decline ([7]; one day after 12 mg/kg, in tandem with the BG reduction, n = 5): 257.3 ± 45.2 μU/mL
- mean glucose infusion rate compared with insulin glargine (5 U/kg) [8]: comparable mean glucose infusion rates
- time BG remained within the target range (70 to 200 mg/dL) [10]: 73.0%
- temporal change in blood glucose clearance determined by clamp studies [11]: 2 fold
- time to peak plasma insulin-129 level ([12]; ELISA): within one hour
- peak average plasma insulin-129 level (PIL) ([12]; ELISA, n = 5): 1320.0 ± 41.3 μU/mL
- t1/2α ([12]; two-compartment model, n = 5): 5.4 ± 1.3 h
- t1/2β ([12]; two-compartment model, n = 5): 147.8 ± 16.8 h
- BG levels below 50 mg/dL ([13]; first of three minipigs): 0%
- BG levels below 50 mg/dL, average ([13]; mean ± s.d., n = 3, SD): 1.7 ± 2.2%
- BG levels below 50 mg/dL ([13]; second of three minipigs): 1.0%
- BG levels below 50 mg/dL ([13]; third of three minipigs): 4.2%
- histomorphological analysis of major organs by H&E staining [14]: no apparent pathological alterations
- average t1/2β [16]: 112.5 ± 17.4 h

Substance: ^131I-labelled insulin-129: insulin-129 labelled by 131I using the chloramine T labelling method
- skin absorption [18]: rapid skin absorption

Substance: Cy5-labelled insulin-129: insulin-129 labelled with Sulfo-Cy5-NHS
- vascular association within the major organs [19]: high level of vascular association

Substance: insulin glargine [reference compound]
- glycaemic control with consecutive daily injections ([1]; 40 U/kg every 24 hours for seven days, n = 5): poor glycaemic control
- time normoglycaemia maintained ([1]; single s.c. 40 U/kg (equivalent to 1.46 mg/kg), n = 5): 4 h
- time normoglycaemia maintained ([1]; single s.c. 400 U/kg (equivalent to 14.6 mg/kg), n = 5): 12 h
- BG-correlated changes of insulin level ([7]; 400 U/kg, i.p. glucose 3.0 g/kg at three and six hours, n = 5): did not display BG-correlated changes
- time BG regulated in the normal range ([10]; Pig-Ⅰ, single dose 0.25 U/kg): less than 12 hours
- time BG regulated in the normal range ([10]; Pig-Ⅱ, single dose 0.33 U/kg): less than 24 hours
- time BG regulated in the normal range ([10]; Pig-Ⅲ, single dose 0.48 U/kg): less than 12 hours
- time BG remained within the target range (70 to 200 mg/dL) [10]: 42.9%

Substance: insulin icodec [reference compound]
- duration relative to insulin-129 at 12 mg/kg ([1]; 400 U/kg): roughly one-third
- time normoglycaemia maintained ([1]; single s.c. 400 U/kg (equivalent to 15.3 mg/kg), n = 5): approximately 72 hours
